Measurements taken from US20260166084A1 (INSTITUTE OF CANCER RESEARCH ROYAL CANCER HOSPITAL, published 2026).

Assays:
[1] = target: T1, complex formed between CRBN/DDB1 and pomalidomide (UniProt Q96SW2 1-442; Q16531 2-1140, limits assumed); test: TR-FRET displacement of Sulfo-Cy5 Aiolos peptide probe from CRBN/DDB1 with 10 uM pomalidomide. The figure is told overall for the three IMiDs.
T1 construct: mature; Same proteins as m3 with 10 uM pomalidomide. 'mature' stands for the printed 'WT full length'; also called CRBN/DDB1 in the presence of pomalidomide
Experimental: (§1) All TR-FRET assays were ran in Black 384-well ProxiPlate Plus (Perkin-Elmer, USA), in a buffer containing 20 mM HEPES pH 8.0, 150 mM NaCl, 0.5 mM TCEP, 0.05% Tween 20 and 0.05% BSA, with a final assay volume of 10 μL. An Echo E550 (Beckman Coulter, USA) acoustic liquid dispenser was used to create final concentration ranges from 82 μM down to 2.05 nM for iTAG1 and 27 μM down to 0.68 nM for iTAG2. […] Finally, IMiDs were added to a final concentration of 10 μM with the Echo. Plates were sealed, centrifuged at 200 g for 1 min and stored overnight at 4° C. The TR-FRET signals were read using a PHERAstar FSX plate reader (BMG Labtech, Germany).

[2] = target: T2, complex formed between CRBN/DDB1 and lenalidomide (UniProt Q96SW2 1-442; Q16531 2-1140, limits assumed); test: TR-FRET displacement of Sulfo-Cy5 Aiolos peptide probe from CRBN/DDB1 with 10 uM lenalidomide. The figure is told overall for the three IMiDs.
T2 construct: mature; Same proteins as m3 with 10 uM lenalidomide. 'mature' stands for the printed 'WT full length'; also called CRBN/DDB1 in the presence of lenalidomide
Experimental: as §1

[3] = target: T3, CRBN/DDB1 protein complex (no IMiD) (UniProt Q96SW2 1-442; Q16531 1-1140, limits assumed); test: size exclusion chromatography (Superose 6) with SDS-PAGE of fractions, no iberdomide
T3 construct: As used in the SEC sample without iberdomide; also called CRBN/DDB1 complex
Experimental: Purified CRBN/DDB1 protein complex and iTAG2 protein were mixed together and subjected to SEC in the presence or absence of iberdomide, shown in FIG. 14.
100 μM iberdomide was included in one of the samples and both were incubated on ice for 1 hour, then centrifuged at 21000 g for 10 minutes prior to injection to remove potential aggregates. The Superose 6 column was pre-equilibrated in the same buffer (20 mM HEPES pH 7.0, 200 mM NaCl and 1 mM TCEP) at a flow rate of 0.25 mL/min before injection of 50 μL of each sample.

[4] = target: T4, complex formed between CRBN/DDB1 and iberdomide (UniProt Q96SW2 1-442; Q16531 2-1140, limits assumed); test: TR-FRET displacement of Sulfo-Cy5 Aiolos peptide probe from CRBN/DDB1 with 10 uM iberdomide. The figure is told overall for the three IMiDs.
T4 construct: mature; also called CRBN/DDB1 in the presence of iberdomide; CRBN/DDB1 with CC-220
Experimental: as §1

T3 sequence (Q96SW2 whole entry, chain 1 of 2): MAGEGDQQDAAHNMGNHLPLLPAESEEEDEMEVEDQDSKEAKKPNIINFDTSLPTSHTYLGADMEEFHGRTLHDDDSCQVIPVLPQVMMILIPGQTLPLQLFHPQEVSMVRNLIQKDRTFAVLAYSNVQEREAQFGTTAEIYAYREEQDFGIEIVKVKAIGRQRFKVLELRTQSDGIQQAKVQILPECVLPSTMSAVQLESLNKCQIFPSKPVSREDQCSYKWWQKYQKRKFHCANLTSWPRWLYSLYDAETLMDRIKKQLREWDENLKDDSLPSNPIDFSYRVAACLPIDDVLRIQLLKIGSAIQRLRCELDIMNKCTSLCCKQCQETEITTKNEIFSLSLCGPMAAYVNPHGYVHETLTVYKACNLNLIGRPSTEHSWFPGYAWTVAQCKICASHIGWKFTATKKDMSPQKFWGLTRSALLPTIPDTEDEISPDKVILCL
T3 sequence (Q16531 whole entry, chain 2 of 2): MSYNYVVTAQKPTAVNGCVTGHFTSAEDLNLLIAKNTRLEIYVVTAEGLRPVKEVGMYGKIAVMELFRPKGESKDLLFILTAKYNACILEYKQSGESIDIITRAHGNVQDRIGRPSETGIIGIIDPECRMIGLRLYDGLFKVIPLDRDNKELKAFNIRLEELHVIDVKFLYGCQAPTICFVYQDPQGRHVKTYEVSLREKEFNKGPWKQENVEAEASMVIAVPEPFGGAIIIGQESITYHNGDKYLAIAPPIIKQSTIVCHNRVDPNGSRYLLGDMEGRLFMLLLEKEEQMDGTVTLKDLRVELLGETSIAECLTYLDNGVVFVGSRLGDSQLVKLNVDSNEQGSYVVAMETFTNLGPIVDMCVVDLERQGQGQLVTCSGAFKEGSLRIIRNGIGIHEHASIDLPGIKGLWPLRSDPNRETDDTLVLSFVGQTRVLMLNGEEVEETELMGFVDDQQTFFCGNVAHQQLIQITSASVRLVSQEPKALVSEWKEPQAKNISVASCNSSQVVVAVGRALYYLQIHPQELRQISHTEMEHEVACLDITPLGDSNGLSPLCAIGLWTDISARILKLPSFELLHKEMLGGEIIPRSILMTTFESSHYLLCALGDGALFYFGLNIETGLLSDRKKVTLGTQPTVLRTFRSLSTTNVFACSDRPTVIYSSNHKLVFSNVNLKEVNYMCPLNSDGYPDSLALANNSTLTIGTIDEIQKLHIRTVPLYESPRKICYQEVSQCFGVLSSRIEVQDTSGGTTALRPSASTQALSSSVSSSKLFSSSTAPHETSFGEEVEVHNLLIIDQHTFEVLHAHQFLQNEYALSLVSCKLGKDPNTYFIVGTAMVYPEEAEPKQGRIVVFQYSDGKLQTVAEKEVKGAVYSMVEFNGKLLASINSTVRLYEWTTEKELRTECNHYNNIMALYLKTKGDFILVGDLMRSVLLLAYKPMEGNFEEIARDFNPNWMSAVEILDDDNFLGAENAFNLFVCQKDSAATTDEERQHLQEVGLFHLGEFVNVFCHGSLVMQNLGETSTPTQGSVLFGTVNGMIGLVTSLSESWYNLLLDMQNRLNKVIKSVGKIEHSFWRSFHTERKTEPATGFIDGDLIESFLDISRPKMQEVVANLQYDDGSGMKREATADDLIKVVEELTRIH
T1 sequence (Q96SW2 whole entry, chain 1 of 2): as the sequence (Q96SW2 whole entry, chain 1 of 2) above
T1 sequence (Q16531 2-1140 limits assumed, chain 2 of 2): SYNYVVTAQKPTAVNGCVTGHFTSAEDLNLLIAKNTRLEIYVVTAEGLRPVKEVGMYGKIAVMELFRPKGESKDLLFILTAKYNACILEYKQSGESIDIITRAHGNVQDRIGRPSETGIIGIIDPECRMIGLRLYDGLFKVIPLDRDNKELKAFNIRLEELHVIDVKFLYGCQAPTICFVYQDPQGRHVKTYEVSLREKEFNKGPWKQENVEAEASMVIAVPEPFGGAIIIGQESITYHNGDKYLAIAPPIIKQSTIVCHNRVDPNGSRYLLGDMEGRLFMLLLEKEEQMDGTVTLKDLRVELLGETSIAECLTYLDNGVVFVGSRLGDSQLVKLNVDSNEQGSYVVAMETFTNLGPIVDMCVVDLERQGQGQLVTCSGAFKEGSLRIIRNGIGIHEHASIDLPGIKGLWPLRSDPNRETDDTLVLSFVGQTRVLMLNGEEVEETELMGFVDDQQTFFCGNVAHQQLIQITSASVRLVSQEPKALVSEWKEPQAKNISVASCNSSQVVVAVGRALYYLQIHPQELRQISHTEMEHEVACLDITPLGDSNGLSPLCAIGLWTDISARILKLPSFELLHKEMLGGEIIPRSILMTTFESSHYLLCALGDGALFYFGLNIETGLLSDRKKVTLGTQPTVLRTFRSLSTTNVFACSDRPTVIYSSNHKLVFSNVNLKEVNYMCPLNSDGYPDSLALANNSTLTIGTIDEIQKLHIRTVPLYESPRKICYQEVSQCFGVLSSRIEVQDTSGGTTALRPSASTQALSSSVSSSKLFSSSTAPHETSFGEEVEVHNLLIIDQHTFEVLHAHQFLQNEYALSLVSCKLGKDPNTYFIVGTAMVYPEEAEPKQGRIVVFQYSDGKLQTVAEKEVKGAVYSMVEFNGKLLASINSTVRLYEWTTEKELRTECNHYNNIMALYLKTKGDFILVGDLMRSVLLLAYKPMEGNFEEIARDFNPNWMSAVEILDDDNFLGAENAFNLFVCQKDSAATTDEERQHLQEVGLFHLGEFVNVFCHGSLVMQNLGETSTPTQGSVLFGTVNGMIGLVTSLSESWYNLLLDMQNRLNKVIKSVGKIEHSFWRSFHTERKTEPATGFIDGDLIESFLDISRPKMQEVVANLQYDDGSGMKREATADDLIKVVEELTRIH
T4 sequence (Q96SW2 whole entry, chain 1 of 2): as the sequence (Q96SW2 whole entry, chain 1 of 2) above
T4 sequence (Q16531 2-1140 limits assumed, chain 2 of 2): as the sequence (Q16531 2-1140 limits assumed, chain 2 of 2) above
T2 sequence (Q96SW2 whole entry, chain 1 of 2): as the sequence (Q96SW2 whole entry, chain 1 of 2) above
T2 sequence (Q16531 2-1140 limits assumed, chain 2 of 2): as the sequence (Q16531 2-1140 limits assumed, chain 2 of 2) above

fold difference of IC50 against iTAG1 [1]: ~10 fold
fold difference of IC50 against iTAG1 [2]: ~10 fold
fold difference of IC50 against iTAG1 [4]: ~10 fold
B1: iTAG2 (DCD23mut) (designed binder)
chain: PNVLMVHNESHTGEIPLQCEICGFTCEQAGNLLNHIELHSGEIPFKCHLCNYACRRRDAL
notes: Purified iTAG2 protein
binding result [3]: no binding (tested: CRBN/DDB1 at 15 uM and iTAG2 at 50 uM)
